Bridge positions count the residues as written; N and C are the ends. Ends that are not written are not given here.
Assays:
CGRP receptor [1] = target: T1, CGRP receptor (Homo sapiens, UniProt O60894+Q16602); assay: Displacement of 125I-CGRP binding to SK-N-MC cell membranes; parameters: relative expression levels of the receptors (endogenous vs. overexpressed); endogenous in cells; host or cells: SK-N-MC cells (ECACC clone; ATCC clone for [Cys5]-CGRP); conditions: 125I-CGRP binding, SK-N-MC membranes; listed as [Cys^5]-CGRP
Protocol: (§1) GraphPad Prism 5.00 or 6.00 (GraphPad Software Inc., San Diego, CA, USA) was used for data fitting. Concentration–response curves were fitted to a sigmoidal function with Hill slope constrained to unity to obtain pEC50 and maximum responses (Emax) values. Displacement curves were analysed to obtain pIC50 values. Schild plots were fitted by linear regression to obtain slope and intercepts. pEC50 and pIC50 values were compared with that of human αCGRP using Dunnett's test with either a normal or repeated measures one-way ANOVA, as appropriate.

CGRP receptor [2] = target: T1, CGRP receptor; assay: cAMP production in Cos 7 cells transfected with CLR and RAMP1; assay type: cell-based; parameters: relative expression levels of the receptors (endogenous vs. overexpressed); endogenous in cells; host or cells: SK-N-MC cells (ECACC clone; ATCC clone for [Cys5]-CGRP); conditions: read-out: Emax, % of that of CGRP, AlphaScreen
Protocol: (§2) SK-N-MC cells were grown in DMEM/F12 medium supplemented with 10% fetal calf serum as described previously (Poyner et al., [1998]). […] Production of cAMP in SK-N-MC cells for all analogues except [[…]]-hαCGRP was by a radioreceptor assay, as described previously (Poyner et al., [1998]). […] For [[…]]-hαCGRP, a different clone of SK-N-MC cells was used and cAMP production was measured via AlphaScreen (Perkin Elmer, Wellesley, MA, USA), as described previously ([…] et al., [2010]). This assay was also used to investigate the action of all derivatives at the AMY1(a) receptor and other experiments using Cos 7 cells. […] GraphPad Prism 5.00 or 6.00 (GraphPad Software Inc., San Diego, CA, USA) was used for data fitting. Concentration-response curves were fitted to a sigmoidal function with Hill slope constrained to unity to obtain pEC50 and maximum responses (Emax) values. Displacement curves were analysed to obtain pIC50 values. Schild plots were fitted by linear regression to obtain slope and intercepts. pEC50 and pIC50 values were compared with that of human αCGRP using Dunnett's test with either a normal or repeated measures one-way ANOVA, as appropriate.

AMY1(a) receptor = target: T2, AMY1(a) receptor (Homo sapiens, UniProt O60894+P30988); assay: cAMP production in Cos 7 cells via the AMY1(a) receptor; assay type: cell-based
T2 construct: HA; expressed in transfected cells; host or cells: Cos 7
Protocol: as §2

CGRP receptor [3] = target: T1, CGRP receptor; assay: β-arrestin 2 translocation in CHO-K1 cells (PathHunter eXpress); assay type: cell-based; parameters: host or cells: CHO-K1 (PathHunter eXpress β-arrestin kit)
Protocol: as §1

CGRP receptor [4] = target: T1, CGRP receptor; assay: cAMP production in SK-N-MC cells; assay type: cell-based; parameters: relative expression levels of the receptors (endogenous vs. overexpressed); endogenous in cells; host or cells: SK-N-MC cells (ECACC clone; ATCC clone for [Cys5]-CGRP)
Protocol: (§3) Production of cAMP in SK-N-MC cells for all analogues except [[…]]-hαCGRP was by a radioreceptor assay, as described previously (Poyner et al., [1998]). […] For [[…]]-hαCGRP, a different clone of SK-N-MC cells was used and cAMP production was measured via AlphaScreen (Perkin Elmer, Wellesley, MA, USA), as described previously ([…] et al., [2010]). This assay was also used to investigate the action of all derivatives at the AMY1(a) receptor and other experiments using Cos 7 cells. […] GraphPad Prism 5.00 or 6.00 (GraphPad Software Inc., San Diego, CA, USA) was used for data fitting. Concentration-response curves were fitted to a sigmoidal function with Hill slope constrained to unity to obtain pEC50 and maximum responses (Emax) values. Displacement curves were analysed to obtain pIC50 values. Schild plots were fitted by linear regression to obtain slope and intercepts. pEC50 and pIC50 values were compared with that of human αCGRP using Dunnett's test with either a normal or repeated measures one-way ANOVA, as appropriate.

CGRP receptor [5] = target: T1, CGRP receptor; assay: Antagonism of CGRP-stimulated cAMP production in SK-N-MC cells; assay type: cell-based; parameters: relative expression levels of the receptors (endogenous vs. overexpressed); endogenous in cells; host or cells: SK-N-MC cells (ECACC clone; ATCC clone for [Cys5]-CGRP)
Protocol: as §3

[6] = system: porcine iris ciliary body; conditions: ref Heino et al., 1998; cited from earlier work
Description: Similarly, substitution of Thr-6 ...

[7] = target: T3, CGRP receptor (calcitonin receptor-like receptor in complex with receptor activity-modifying protein 1) (human (endogenous in SK-N-MC), UniProt Q16602 23-461; O60894 27-148); assay: cell-based or functional assay
[8] = target: T3, CGRP receptor (calcitonin receptor-like …); assay: radioligand binding; displacement of ^125I-CGRP from SK-N-MC cell membranes by unlabelled peptides, microcentrifugation-based binding assay; [Cys^5]-CGRP and its control on another batch of SK-N-MC cells; conditions: one partner purified
[9] = target: AMY_(1(a)) receptor (human HA-tagged CT (a) receptor with human myc-tagged RAMP1) (human) (UniProt O60894)
[10] = target: T3, CGRP receptor (calcitonin receptor-like …); assay: cell-based or functional assay; remark: listed apart in the source
[11] = AlphaScreen, means ± SEM, n = 3–6, listed as [Cys^6]
[12] = 2 h stimulation, means ± SEM, n = 3, listed as [Cys^6]
[13] = radioreceptor assay, approx. 10 min, means ± SEM, n = 3–6, listed as [Cys^6]

AMY_(1(a)) receptor (human HA-tagged CT (a) receptor with human myc-tagged RAMP1) (human), sequence (O60894 whole entry, looked up): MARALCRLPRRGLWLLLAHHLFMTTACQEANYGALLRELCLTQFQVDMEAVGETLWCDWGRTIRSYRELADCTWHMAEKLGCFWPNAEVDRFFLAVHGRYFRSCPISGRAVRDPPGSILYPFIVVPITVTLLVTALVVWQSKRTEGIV
T3 sequence (Q16602 23-461, chain 1 of 2): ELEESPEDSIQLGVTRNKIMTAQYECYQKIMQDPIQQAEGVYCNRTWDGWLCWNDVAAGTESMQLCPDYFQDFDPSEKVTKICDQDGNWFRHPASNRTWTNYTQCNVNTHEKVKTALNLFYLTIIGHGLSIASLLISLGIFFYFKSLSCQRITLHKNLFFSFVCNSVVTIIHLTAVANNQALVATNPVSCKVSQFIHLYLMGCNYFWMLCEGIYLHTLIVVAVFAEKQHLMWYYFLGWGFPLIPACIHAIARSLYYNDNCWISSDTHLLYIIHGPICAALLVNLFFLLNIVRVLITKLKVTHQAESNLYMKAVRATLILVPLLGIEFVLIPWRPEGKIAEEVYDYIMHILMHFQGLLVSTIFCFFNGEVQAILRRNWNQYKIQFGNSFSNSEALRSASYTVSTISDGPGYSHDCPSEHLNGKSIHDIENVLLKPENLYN
T3 sequence (O60894 27-148, chain 2 of 2): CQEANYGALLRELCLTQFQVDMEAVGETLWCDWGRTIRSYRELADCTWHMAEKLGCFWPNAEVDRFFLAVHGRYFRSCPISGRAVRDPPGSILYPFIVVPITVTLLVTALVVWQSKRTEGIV
T1 sequence (Q16602 23-461): as the sequence (Q16602 23-461, chain 1 of 2) above
T1 sequence (O60894 27-148): as the sequence (O60894 27-148, chain 2 of 2) above
T2 sequence (P30988 25-474): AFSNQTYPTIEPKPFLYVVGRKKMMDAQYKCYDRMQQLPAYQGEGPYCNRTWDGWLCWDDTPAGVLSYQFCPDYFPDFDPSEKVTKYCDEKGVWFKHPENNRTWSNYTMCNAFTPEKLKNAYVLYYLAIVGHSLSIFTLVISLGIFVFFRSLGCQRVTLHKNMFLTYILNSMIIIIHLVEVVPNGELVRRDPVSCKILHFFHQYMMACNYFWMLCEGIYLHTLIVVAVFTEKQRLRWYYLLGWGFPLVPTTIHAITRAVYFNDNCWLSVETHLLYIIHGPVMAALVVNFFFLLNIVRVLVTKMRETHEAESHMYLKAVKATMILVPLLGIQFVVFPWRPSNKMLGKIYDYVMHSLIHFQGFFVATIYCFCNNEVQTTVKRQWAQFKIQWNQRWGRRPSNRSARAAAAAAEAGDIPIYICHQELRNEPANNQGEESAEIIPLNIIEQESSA
T2 sequence (O60894 27-148): as the sequence (O60894 27-148, chain 2 of 2) above

Emax (% CGRP), cAMP production in SK-N-MC cells [7] [% CGRP] | Emax (% CGRP), β-arrestin 2 translocation in CHO-K1 cells expressing the human CGRP receptor [7] [% CGRP] | pEC50, cAMP production in SK-N-MC cells [7] | pEC50, β-arrestin 2 translocation in CHO-K1 cells expressing the human CGRP receptor [7] | pKi [8] | Emax (% CGRP), cAMP production in Cos 7 cells with the AMY (1(a)) receptor [9] [% CGRP] | pEC50, cAMP production in Cos 7 cells with the AMY (1(a)) receptor [9] | pEC50, cAMP production in the second clone of SK-N-MC cells, AlphaScreen (control experiment) [10] | Molecule | also measured
 |  |  |  |  |  |  |  | CC(C)C[C@H](NC(=O)CNC(=O)[C@H](C)NC(=O)[C@H](CC(C)C)NC(=O)[C@H](CCCNC(=N)N)NC(=O)[C@H](Cc1c[nH]cn1)NC(=O)[C@@H](NC(=O)[C@@H](NC(=O)[C@@H]1CSSC[C@H](NC(=O)[C@@H](N)CS)C(=O)N[C@@H](CC(=O)O)C(=O)N[C@@H]([C@@H](C)O)C(=O)N[C@@H](C)C(=O)N[C@@H]([C@@H](C)O)C(=O)N1)C(C)C)[C@@H](C)O)C(=O)N[C@@H](CC(C)C)C(=O)N[C@@H](CO)C(=O)N[C@@H](CCCNC(=N)N)C(=O)N[C@@H](CO)C(=O)NCC(=O)NCC(=O)N[C@H](C(=O)N[C@H](C(=O)N[C@@H](CCCCN)C(=O)N[C@@H](CC(N)=O)C(=O)N[C@@H](CC(N)=O)C(=O)N[C@@H](Cc1ccccc1)C(=O)N[C@H](C(=O)N1CCC[C@H]1C(=O)N[C@H](C(=O)N[C@@H](CC(N)=O)C(=O)N[C@H](C(=O)NCC(=O)N[C@@H](CO)C(=O)N[C@@H](CCCCN)C(=O)N[C@@H](C)C(=O)N[C@@H](Cc1ccccc1)C(N)=O)C(C)C)[C@@H](C)O)C(C)C)C(C)C)C(C)C [[Cys^1]] | decrease in affinity compared with CGRP (CGRP receptor [1]): > 270 fold; Emax (CGRP receptor [2]): 90 ± 8%; fold less potent than CGRP, cAMP at AMY1(a) receptor (AMY1(a) receptor): 75 fold; stimulation of cAMP production at AMY1(a) receptor (AMY1(a) receptor): no consistent stimulations; AMY1(a) receptor-stimulated cAMP Emax (% CGRP) CGRP analogue (AMY1(a) receptor; [11]): Undetectable; AMY1(a) receptor-stimulated cAMP pEC50 CGRP analogue (AMY1(a) receptor; [11]): Undetectable; β-Arrestin (CHO-K1) Emax (% CGRP) CGRP analogue (CGRP receptor [3]; [12]): Undetectable; β-Arrestin (CHO-K1) pEC50 CGRP analogue (CGRP receptor [3]; [12]): Undetectable; Emax (CGRP receptor [3]; CHO-K1, CHO-K1 cells, compared with CGRP, read-out: reduction of Emax, β-arrestin 2 translocation): 45%; decrease in potency for β-arrestin 2 translocation compared with CGRP (CGRP receptor [3]; CHO-K1 cells): ninefold; stimulation of β-arrestin 2 translocation (CGRP receptor [3]; CHO-K1 cells, [Asp6] and [Lys6] at concentrations of up to 1 μM): unable to stimulate; decrease in potency on cAMP compared with CGRP (CGRP receptor [4]; SK-N-MC cells): over 100 fold; stimulation of cAMP production (CGRP receptor [4]; SK-N-MC cells, [Asp6] and [Lys6] at concentrations of up to 10 μM): unable to stimulate; cAMP (SK-N-MC) Emax (% CGRP) CGRP analogue (CGRP receptor [4]; [13]): Undetectable; cAMP (SK-N-MC) pEC50 CGRP analogue (CGRP receptor [4]; [13]): Undetectable; slope of Schild plot (CGRP receptor [5]; listed as [Cys^5]-CGRP): 1.33 ± 0.30; slope of Schild plot (CGRP receptor [5]; listed as [Cys^6]-CGRP): 0.98 ± 0.20
 |  |  |  |  |  |  |  | [Val^6]-CGRP: CGRP analogue substituted at position 6, from Heino et al., 1998 (ACDTAVCVTHRLAGLLSRSGGVVKNNFVPTNVGSKAF-NH2; disulfide 2-7; ends not checked; UniProt P06881 83-119, looked up, variant T6V) | stimulation of cAMP production [6]: inactive
100 | 73 | 7.43 | 8.42 | 9.4 | 161 | 8.57 | 7.58 | ACDAATCVTHRLAGLLSRSGGVVKNNFVPTNVGSKAF-NH2 (disulfide 2-7) [[Ala^4]-CGRP] | 
72 | 43 | 6.59 | 7.74 | 8.57 | 42 | 7 | 7.39 | ACDTAACVTHRLAGLLSRSGGVVKNNFVPTNVGSKAF-NH2 (disulfide 2-7) [[Ala^6]-CGRP] | 
 | 55 |  | 8.25 | 8 | 50 | 7.78 |  | ACDTCTCVTHRLAGLLSRSGGVVKNNFVPTNVGSKAF-NH2 (disulfide 2-7; N-terminus assumed; SMILES CC(C)C[C@H](NC(=O)CNC(=O)[C@H](C)NC(=O)[C@H](CC(C)C)NC(=O)[C@H](CCCNC(=N)N)NC(=O)[C@H](Cc1c[nH]cn1)NC(=O)[C@@H](NC(=O)[C@@H](NC(=O)[C@@H]1CSSC[C@H](NC(=O)[C@H](C)N)C(=O)N[C@@H](CC(=O)O)C(=O)N[C@@H]([C@@H](C)O)C(=O)N[C@@H](CS)C(=O)N[C@@H]([C@@H](C)O)C(=O)N1)C(C)C)[C@@H](C)O)C(=O)N[C@@H](CC(C)C)C(=O)N[C@@H](CO)C(=O)N[C@@H](CCCNC(=N)N)C(=O)N[C@@H](CO)C(=O)NCC(=O)NCC(=O)N[C@H](C(=O)N[C@H](C(=O)N[C@@H](CCCCN)C(=O)N[C@@H](CC(N)=O)C(=O)N[C@@H](CC(N)=O)C(=O)N[C@@H](Cc1ccccc1)C(=O)N[C@H](C(=O)N1CCC[C@H]1C(=O)N[C@H](C(=O)N[C@@H](CC(N)=O)C(=O)N[C@H](C(=O)NCC(=O)N[C@@H](CO)C(=O)N[C@@H](CCCCN)C(=O)N[C@@H](C)C(=O)N[C@@H](Cc1ccccc1)C(N)=O)C(C)C)[C@@H](C)O)C(C)C)C(C)C)C(C)C) [[Cys^5]-CGRP] | pEC50, cAMP production in SK-N-MC cells (other clone of cells, AlphaScreen; footnote: no response seen in five experiments) [7]: 7.18; pEC50, cAMP production in Cos 7 cells transfected with CLR and RAMP1 [10]: 7.9

Reference: PMC3904261 (British Journal of Pharmacology, 2013)
